Consider one variant from IntAct's records for PubMed 12134079.

The labels stand for the following.
B1: "Bis(monoacylglycero)phosphate synthase CLN5" (Homo sapiens), O75503 (parent)
chain: MAQEVDTAQGAEMRRGAGAARGRASWCWALALLWLAVVPGWSRVSGIPSRRHWPVPYKRFDFRPKPDPYCQAKYTFCPTGSPIPVMEGDDDIEVFRLQAPVWEFKYGDLLGHLKIMHDAIGFRSTLTGKNYTMEWYELFQLGNCTFPHLRPEMDAPFWCNQGAACFFEGIDDVHWKENGTLVQVATISGNMFNQMAKWVKQDNETGIYYETWNVKASPEKGAETWFDSYDCSKFVLRTFNKLAEFGAEFKNIETNYTRIFLYSGEPTYLGNETSVFGPTGNKTLGLAIKRFYYPFKPHLPTKEFLLSLLQIFDAVIVHKQFYLFYNFEYWFLPMKFPFIKITYEEIPLPIRNKTLSGL
partner: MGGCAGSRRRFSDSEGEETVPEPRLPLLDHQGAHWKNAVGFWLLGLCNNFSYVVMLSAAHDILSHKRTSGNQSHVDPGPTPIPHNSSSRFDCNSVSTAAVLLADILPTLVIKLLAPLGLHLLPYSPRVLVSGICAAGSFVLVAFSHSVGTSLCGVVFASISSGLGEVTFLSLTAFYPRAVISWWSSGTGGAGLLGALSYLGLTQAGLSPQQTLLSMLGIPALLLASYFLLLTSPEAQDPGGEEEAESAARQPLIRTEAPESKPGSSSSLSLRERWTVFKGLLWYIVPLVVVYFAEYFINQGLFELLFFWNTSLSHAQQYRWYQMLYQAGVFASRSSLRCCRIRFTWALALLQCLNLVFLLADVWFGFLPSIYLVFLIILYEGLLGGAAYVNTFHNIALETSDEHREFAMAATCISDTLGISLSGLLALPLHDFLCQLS

In this test the parent is B1. The following applies: with cln3_human CLN3, Q13286.
For the variant D230N, the “effect of a mutation on the interaction” value is reported as “with no effect”.
